# Patent US20160215040A1 (Regeneron, published 2016)
# Where a chain is given by its changes, count along the chain named.
# T1: Ebola virus GP, Sudan strain, on VLPs (Ebola virus, Sudan strain, UniProt Q7T9D9 33-676)
# T1 construct: also called Sudan NC_006432
# T1 sequence: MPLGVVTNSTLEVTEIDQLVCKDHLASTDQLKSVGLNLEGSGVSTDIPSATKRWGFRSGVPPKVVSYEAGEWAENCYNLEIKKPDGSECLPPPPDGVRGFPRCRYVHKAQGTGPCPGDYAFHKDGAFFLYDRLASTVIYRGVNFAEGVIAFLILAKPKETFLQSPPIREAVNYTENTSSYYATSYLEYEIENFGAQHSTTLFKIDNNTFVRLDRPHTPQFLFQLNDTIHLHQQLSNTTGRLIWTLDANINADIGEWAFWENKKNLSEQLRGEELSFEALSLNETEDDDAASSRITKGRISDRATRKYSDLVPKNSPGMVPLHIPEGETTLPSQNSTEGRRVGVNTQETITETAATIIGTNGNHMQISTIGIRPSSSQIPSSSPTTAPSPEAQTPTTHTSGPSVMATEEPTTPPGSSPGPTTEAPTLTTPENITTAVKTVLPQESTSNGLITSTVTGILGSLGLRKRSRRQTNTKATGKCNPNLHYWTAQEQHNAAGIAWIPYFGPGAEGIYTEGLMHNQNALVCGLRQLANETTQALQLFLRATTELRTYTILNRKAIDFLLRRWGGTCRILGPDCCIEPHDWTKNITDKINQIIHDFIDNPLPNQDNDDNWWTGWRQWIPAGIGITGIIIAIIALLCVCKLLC
# T2: Ebola virus GP, Cote d'Ivoire strain, on VLPs (Ebola virus, Cote d'Ivoire strain, UniProt Q66810 33-676)
# T2 construct: also called Cote d'Ivoire FJ217162; Ivory Coast
# T2 sequence: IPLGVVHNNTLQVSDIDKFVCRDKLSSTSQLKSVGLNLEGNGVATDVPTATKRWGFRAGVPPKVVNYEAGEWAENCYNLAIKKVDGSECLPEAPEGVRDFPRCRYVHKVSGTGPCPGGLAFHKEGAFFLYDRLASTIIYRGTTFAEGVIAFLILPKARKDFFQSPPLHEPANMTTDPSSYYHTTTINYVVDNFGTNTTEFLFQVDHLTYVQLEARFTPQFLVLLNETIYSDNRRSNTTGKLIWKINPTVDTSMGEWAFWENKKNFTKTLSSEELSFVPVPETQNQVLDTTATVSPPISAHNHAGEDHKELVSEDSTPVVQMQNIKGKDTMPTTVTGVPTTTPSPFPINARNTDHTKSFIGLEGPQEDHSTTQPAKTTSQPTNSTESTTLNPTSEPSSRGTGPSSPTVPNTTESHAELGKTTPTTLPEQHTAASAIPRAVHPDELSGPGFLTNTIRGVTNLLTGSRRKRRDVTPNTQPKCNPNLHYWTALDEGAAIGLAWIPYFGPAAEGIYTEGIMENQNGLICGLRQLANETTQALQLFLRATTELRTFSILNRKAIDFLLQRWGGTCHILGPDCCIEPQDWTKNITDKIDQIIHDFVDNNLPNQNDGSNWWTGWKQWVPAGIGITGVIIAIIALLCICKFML
# T3: hCNTFR.mmh (ciliary neurotrophic factor receptor.mmh) (human (printed as hCNTFR), UniProt P26992 23-342)
# T3 construct: also called negative control protein; not shown: mmh (myc-myc-hexahistidine) tag
# T3 sequence: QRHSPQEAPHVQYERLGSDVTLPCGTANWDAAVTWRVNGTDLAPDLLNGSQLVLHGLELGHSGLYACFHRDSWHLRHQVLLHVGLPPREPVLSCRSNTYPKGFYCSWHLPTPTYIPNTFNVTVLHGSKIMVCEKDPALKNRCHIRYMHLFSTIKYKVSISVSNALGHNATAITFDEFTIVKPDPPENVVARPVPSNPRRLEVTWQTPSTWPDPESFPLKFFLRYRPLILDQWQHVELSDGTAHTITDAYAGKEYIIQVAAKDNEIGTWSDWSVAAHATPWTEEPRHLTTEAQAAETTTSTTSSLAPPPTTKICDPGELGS
# B1: H1H17193P (antibody, V domains shown)
# VH: QVQLVESGGGVVQPGRSLRLSCAASGFTFSSYGIHWVRQAPGKWLEWVAFIWFDGSNKYYADSVKGRFTISRDDSKNTLYLQMNSLRAEDTAVYYCARDGEIFGVLISSDAFDIWGQGTMVTVSS
# VL: DIQMTQSPSSLSASVGDRVTITCRASRGIRNDLGWFQQKPGKAPKRLIYVASNLQSGVPSRFSGSGSGTEFTLTISSLQPEDFATYYCLQHNSYPITFGQGTRLEIK
# B2: H1H17196P (antibody, V domains shown)
# VH: EVQLVESGGGLVQPGGSLRLSCAASGFTFRSYDMHWVRQGSGKGLEWVSAIGTAGDTYYLGSVKGRFTISRENAKNSLYLQMNSLRAGDTAVYYCARAWFGDVFLDYWGQGTLVTVSS
# VL: EIVMTQSPATLSVSPGERATLSCRASQSVSSNLAWYQQKPGQAPRLLIYGASTRATGIPARFSGSGSGTEFTLTISSLQSEDFAGYYCQQYNNRLTFGGGTKVEIK
# B3: H2aM17358N (antibody, V domains shown)
# VH: EVQLVESGGGLVQPGGSLRLSCAASGFTFSTYEMNWVRQAPGKGLEWVSYSSSSGRTIYYADSVKGRFTISRDNAKNSLFLQMNSLRAEDTAVYYCARPSSIETLLRNQYHYGVDVWGQGTTVTVSS
# VL: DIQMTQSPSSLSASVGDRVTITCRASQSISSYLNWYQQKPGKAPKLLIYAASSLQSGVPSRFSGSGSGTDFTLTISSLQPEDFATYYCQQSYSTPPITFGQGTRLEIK
# notes: also called HCAF12C05-14
# B4: H2aM17360N (antibody, V domains shown)
# VH: B3 VH with T31S, S51I, R56S, I58K, F80Y, E103P, T104A, V114M
# VL: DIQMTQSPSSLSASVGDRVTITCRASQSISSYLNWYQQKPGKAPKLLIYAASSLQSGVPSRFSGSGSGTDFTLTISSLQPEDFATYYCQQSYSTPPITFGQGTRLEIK
# notes: also called HCAF12G09-07
# Molecular target: T1, Ebola virus GP, Sudan strain, on VLPs
# Test: MSD, VLPs coated
row,Binder,binding result
1,B1,no binding
2,B2,no binding

# Molecular target: T2, Ebola virus GP, Cote d'Ivoire strain, …
# Test: MSD, VLPs coated
row,Binder,binding result
1,B1,no binding
2,B2,no binding

# Molecular target: T4, Ebola virus GP with a C-terminal polyhistidine tag (Sino Biologicals, Catalog #40442-V08B1) (Ebola virus, UniProt P87666 33-650)
# T4 construct: also called EbolaGP.his; Ebola virus GP.his
# Test: SPR 25C, mAb captured
Binder,Kd [nM],koff [s⁻¹],kon [M⁻¹ s⁻¹],t½ [min]
B3,623,0.000201,322,57.5
B4,0.463,1.06e-05,23000,1090
B1,23.6,0.000108,4580,107
B2,≤ 0.391,≤ 1e-05,25600,≥ 1160

# Molecular target: T4, Ebola virus GP with a C-terminal …
# Test: SPR 37C, mAb captured
Binder,Kd [nM],koff [s⁻¹],kon [M⁻¹ s⁻¹],t½ [min]
B3,52.8,0.000567,10700,20.4
B4,13.9,0.000337,24300,34.3
B1,31.8,0.000503,15800,22.9
B2,0.317,≤ 1e-05,31600,≥ 1160

# Molecular target: Ebola virus GP, Zaire 2014 strain, on VLPs (pseudoparticles) (Ebola virus, Zaire.2014 strain)
# Test: cell-based or functional assay
row,Binder,Zaire 2014 VLP neutralization IC50 [nM]
1,B3,4.68
2,B4,3.75

# Molecular target: T3, hCNTFR.mmh (ciliary neurotrophic factor …)
# Test: BLI, mAb captured, 25C
row,Binder,binding result
1,B1,no binding (tested: below 0.10 nm at 300 nM)
2,B2,no binding (tested: below 0.10 nm at 300 nM)

# Molecular target: T4, Ebola virus GP with a C-terminal …
# Test: SPR 37C, mAb captured, pH chase
Binder,t½ ratio pH 7.4/pH 5.0,t½ ratio pH 7.4/pH 6.0
B3,0.4,0.7
B4,0.5,0.2
B1,0.8,1.1
B2,1,1
